For test [1], the target named is T1, cynomolgus DLL4 expressed on CHO cells (cynomolgus, UniProt Q9NR61 27-685 (human entry)).
T1 construct: also called cDLL4; CHO-cDLL4
T1 chain: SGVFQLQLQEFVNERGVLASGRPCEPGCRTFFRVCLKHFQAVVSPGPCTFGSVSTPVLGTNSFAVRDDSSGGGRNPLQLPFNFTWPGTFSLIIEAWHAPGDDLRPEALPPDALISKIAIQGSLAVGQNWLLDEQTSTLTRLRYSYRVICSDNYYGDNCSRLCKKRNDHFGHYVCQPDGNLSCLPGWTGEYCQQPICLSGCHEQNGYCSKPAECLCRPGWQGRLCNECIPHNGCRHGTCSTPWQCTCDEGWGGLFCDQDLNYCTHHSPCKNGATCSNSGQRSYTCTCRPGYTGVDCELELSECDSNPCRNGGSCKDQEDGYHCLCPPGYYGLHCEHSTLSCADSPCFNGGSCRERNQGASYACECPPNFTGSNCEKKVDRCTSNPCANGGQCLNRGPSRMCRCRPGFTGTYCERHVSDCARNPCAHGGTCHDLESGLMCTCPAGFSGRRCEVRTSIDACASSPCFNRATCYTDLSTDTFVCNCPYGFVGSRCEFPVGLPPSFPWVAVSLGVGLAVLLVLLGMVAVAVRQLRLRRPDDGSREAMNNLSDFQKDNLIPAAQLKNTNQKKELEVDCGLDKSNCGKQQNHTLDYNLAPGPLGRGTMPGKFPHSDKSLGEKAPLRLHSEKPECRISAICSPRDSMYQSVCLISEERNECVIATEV
Nature of the test: FACS; summary table, column taken as cDLL4. (In flow cytometry, cells or beads pass a laser one at a time.)

The target of test [2] is T2, human DLL4 expressed on cells (CHO-hDLL4; HEK293-hDLL4) (human, UniProt Q9NR61 27-685).
T2 construct: full length human DLL4 overexpressed on CHO cells (FMAT, FACS) or HEK293 cells (reporter assay)
Nature of the test: competition FMAT, labelled hNotch1-Fc on CHO-hDLL4 cells.

Test [3] deals with T3, mouse DLL4 expressed on CHO cells (mouse, UniProt Q9JI71 27-686).
T3 construct: whole, on cells; also called mDLL4; CHO-mDLL4
T3 sequence (Q9JI71 27-686): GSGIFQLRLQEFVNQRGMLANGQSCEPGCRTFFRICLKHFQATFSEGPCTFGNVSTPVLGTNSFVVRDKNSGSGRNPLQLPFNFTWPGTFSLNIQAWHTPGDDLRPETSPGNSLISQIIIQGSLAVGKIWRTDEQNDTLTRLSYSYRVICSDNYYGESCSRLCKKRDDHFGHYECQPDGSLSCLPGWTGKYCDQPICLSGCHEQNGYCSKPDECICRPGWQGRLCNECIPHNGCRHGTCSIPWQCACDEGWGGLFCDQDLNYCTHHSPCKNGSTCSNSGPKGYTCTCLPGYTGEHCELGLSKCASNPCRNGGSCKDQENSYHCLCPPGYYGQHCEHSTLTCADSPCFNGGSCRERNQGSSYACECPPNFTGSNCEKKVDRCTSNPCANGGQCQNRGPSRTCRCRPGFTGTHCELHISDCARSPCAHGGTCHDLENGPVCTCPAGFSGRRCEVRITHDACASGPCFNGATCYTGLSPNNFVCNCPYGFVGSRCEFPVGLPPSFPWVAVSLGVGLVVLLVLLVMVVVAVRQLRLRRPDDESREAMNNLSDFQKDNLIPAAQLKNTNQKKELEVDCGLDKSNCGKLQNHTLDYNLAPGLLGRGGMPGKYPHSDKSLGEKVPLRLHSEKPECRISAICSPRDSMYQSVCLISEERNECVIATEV
Kind of test: competition FMAT, labelled hNotch1-Fc on CHO-mDLL4 cells.

Test [4] addresses T4, recombinant human DLL4 (C-terminally His-tagged extracellular domain, R&D Systems) (human, UniProt Q9NR61 25-522, biotinylated in the competition ELISA).
T4 construct: also called rhDLL4; hDLL4
Kind of test: competition ELISA hDLL4/hNotch1-Fc; summary table. Background: An ELISA detects its analyte on a solid surface through an enzyme-linked reagent.

The target in test [5] is T2, human DLL4 expressed on cells …. Kind of test: competition FMAT CHO-hDLL4; summary table.
The target in test [6] is T4, recombinant human DLL4 (C-terminally …). Nature of the test: SPR (Biacore), rhDLL4. On the procedure: Kinetic analysis to determine the affinity of the DII4-VHH interaction is performed by Surface Plasmon Resonance (SPR) on a Biacore T100 instrument. […] Purified VHHs or Fab fragment are injected for 2 minutes at different concentrations (between 10 and 300 nM) and allowed to dissociate for 20 min at a flow rate of 45 μl/min. Between sample injections, the surfaces are regenerated with 10 mM glycine pH1.5 and 100 mM HCl. HBS-N (Hepes buffer pH7.4) is used as running buffer. If possible, data are evaluated by fitting a 1:1 interaction model (Langmuir binding) onto the binding curves. The affinity constant KD is calculated from resulting association and dissociation rate constants (kₐ) and […].
On the technique in general: In SPR one partner is held on a chip, and binding of the other changes the refractive index at the surface.

The target of test [7] is T3, mouse DLL4 expressed on CHO cells. Kind of test: competition FMAT CHO-mDLL4; summary table.
Test [8] concerns the target T2, human DLL4 expressed on cells …. Kind of test: FACS; summary table, column taken as hDLL4.
Test [9] deals with T4, recombinant human DLL4 (C-terminally …). Kind of test: SPR (Biacore); summary table.
Test [10] has as its target T5, recombinant mouse DLL4 (C-terminally His-tagged extracellular domain, R&D Systems) (mouse, UniProt Q9JI71 27-532).
T5 construct: extracellular domain; also called rmDLL4; mDLL4
Kind of test: SPR (Biacore); summary table.

Test [11] deals with T2, human DLL4 expressed on cells …. Nature of the test: cell-based or functional assay.
For test [12] the target is unchanged. Kind of test: FACS on CHO-hDLL4 cells.
In test [13] the target is T4, recombinant human DLL4 (C-terminally …). Nature of the test: competition ELISA, biotinylated hDLL4 to coated hNotch1-Fc.
In test [14] the target is T1, cynomolgus DLL4 expressed on CHO cells. Kind of test: FACS on CHO-cDLL4 cells.
The target of test [15] is T5, recombinant mouse DLL4 (C-terminally …). Kind of test: SPR (Biacore), rmDLL4.
Test [16] has as its target T3, mouse DLL4 expressed on CHO cells. Nature of the test: FACS; summary table, column taken as mDLL4.
For test [17] the target is unchanged. Nature of the test: FACS on CHO-mDLL4 cells.
Test [18] has as its target T4, recombinant human DLL4 (C-terminally …). Nature of the test: binding ELISA on coated recombinant human DLL4 (Example 5.8, Example 7), OD 450 nm.

T5 sequence (Q9JI71 27-532): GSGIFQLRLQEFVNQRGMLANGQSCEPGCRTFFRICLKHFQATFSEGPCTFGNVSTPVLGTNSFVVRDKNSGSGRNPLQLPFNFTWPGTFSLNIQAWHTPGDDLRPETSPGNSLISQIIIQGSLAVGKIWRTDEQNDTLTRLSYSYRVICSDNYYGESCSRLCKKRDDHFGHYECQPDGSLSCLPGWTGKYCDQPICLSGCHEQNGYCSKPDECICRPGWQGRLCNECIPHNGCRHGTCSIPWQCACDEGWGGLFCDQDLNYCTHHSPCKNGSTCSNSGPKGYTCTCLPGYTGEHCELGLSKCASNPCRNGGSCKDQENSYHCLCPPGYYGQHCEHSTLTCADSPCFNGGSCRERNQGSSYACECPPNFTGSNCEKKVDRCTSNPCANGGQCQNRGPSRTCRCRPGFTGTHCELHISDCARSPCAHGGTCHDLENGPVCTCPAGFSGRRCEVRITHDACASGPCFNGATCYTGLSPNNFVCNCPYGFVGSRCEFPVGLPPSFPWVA

B1: DLLBII101G08 (VHH, not shown: small tags and cut ends)
VHH: EVQLVESGGGLVQAGGSLRLSCAASGRTFSSYAMAWFRQAPGKEREFVAAIRWSGGTAYYADSVQGRFTISRDNAKNTVYLQMNSLKPEDTAVYYCANRAADTRLGPYEYDYWGQGTQVTVSS
notes: parent VHH; also called 101G08 (wt); 101G8
For orientation: EC50 means the concentration at which the effect is half-maximal. As usually defined, the IC50 is the concentration that inhibits the measured activity by half. For orientation: Kd means the concentration at which binding is half-saturated. The koff is the rate constant with which the complex falls apart. Usually kon stands for a measure of how fast the partners come together. As to B1, the EC50 in test [1] amounted to 11.2 nM; in test [8] it was 17.5 nM; in test [12], 17.5 nM; in test [14] it was 11.2 nM. The 50% inhibitory concentration (IC50) in test [2] is 69.3 nM; in test [3] it was 140 nM; in test [4], 10 nM; in test [5], 69.3 nM; in test [7], 140 nM; in [13], 10 nM. Further, the Kd in test [6] worked out at 48 nM; in [9], 48 nM; in test [10] it was 60 nM; in test [15], 60 nM. Further, the koff in [6] was determined as 0.0023 s⁻¹; in [15] it was 0.0056 s⁻¹. Also, the association rate constant (kon) in test [6] stood at 48000 M⁻¹ s⁻¹; in test [15], 94000 M⁻¹ s⁻¹. Also, in [11], the “IC50, DLL4-mediated reporter assay” value amounted to 1940 nM.

B2: DLLBII129D08 (VHH, not shown: small tags and cut ends)
VHH: EVQLVESGGGLVQAGGSLRLSCAASGRTFSSYAMAWYRQAPGKEREYVAAIRWSGGTAYYADSVQGRFTISRDNAKNTVYLQMNSLKPEDTAVYYCANRAPDTRLEPYLYDYWGQGTQVTVSS
As for B2, the concentration giving a half-maximal response (EC50) in test [1] is 3.8 nM; in test [16], 3.7 nM; in [8] it was 9.6 nM; in [12] it was 9.6 nM; in test [17] it was 3.7 nM; in test [14], 3.8 nM. In addition, the IC50 in [2] came to 7.8 nM; in test [3], 11 nM; in test [4], 1.2 nM; in test [5], 7.8 nM; in test [7], 11 nM; in [13] it was 1.2 nM. Moreover, the dissociation constant Kd in [6] was 0.4 nM; in test [9] it was 0.4 nM; in test [10] it was 0.8 nM; in test [15], 0.8 nM. Further, the koff was found to be 6.4e-05 s⁻¹ in test [6] and 0.0002 s⁻¹ in [15]. The figures for the on-rate constant (kon) in [6] and in test [15] were 180000 M⁻¹ s⁻¹ and 270000 M⁻¹ s⁻¹, respectively. For the same molecule, in test [11], the “IC50, DLL4-mediated reporter assay” value was 77 nM.

B3: DLLBII129E11 (VHH, not shown: small tags and cut ends)
VHH: EVQLVESGGGLVQAGGSLRLSCAASGRTFSSYAMAWYRQAPGKEREYVAAIRWSGGTAYYADSVQGRFTISRDNAKNTVYLQMNSLKPEDTAVYYCANRAPDTRLRPYLYDYWGQGTQVTVSS
Regarding B3, the half-maximal effective concentration (EC50) in test [1] worked out at 4.2 nM; in [16] it was 4.1 nM; in [8] it was 10.4 nM; in test [12], 1.4 nM; in test [17], 4.1 nM; in test [14], 4.2 nM. Besides, the IC50 in [2] amounted to 8.1 nM; in [3] it was 12.3 nM; in [4], 1.3 nM; in [5], 8.1 nM; in test [7] it was 12.3 nM; in test [13] it was 1.3 nM. For the same molecule, the Kd in [6] turned out to be 0.5 nM; in test [9] it was 0.5 nM; in test [10], 1.2 nM; in [15], 1.2 nM. Moreover, the figures for the off-rate constant (koff) in [6] and in test [15] were 9e-05 s⁻¹ and 0.00029 s⁻¹, respectively. For the same molecule, the kon in test [6] came to 190000 M⁻¹ s⁻¹; in test [15], 250000 M⁻¹ s⁻¹. In test [11], the “IC50, DLL4-mediated reporter assay” value was found to be 98 nM.

B4: DLLBII129B05 (VHH, not shown: small tags and cut ends)
VHH: EVQLVESGGGLVQAGGSLRLSCAASGRTFSSYAMAWYRQAPGKEREYVAAIRWSGGTAYYADSVQGRFTISRDNAKNTVYLQMNSLKPEDTAVYYCANRAPDTRLAPYEYDHWGQGTQVTVSS
As to B4, the EC50 in [1] was found to be 3.9 nM; in test [16], 3.9 nM; in test [8], 9.7 nM; in [12], 9.7 nM; in test [17] it was 3.9 nM; in test [14] it was 3.9 nM. For the same molecule, the concentration for half-maximal inhibition (IC50) in [2] came out at 7.4 nM; in [3], 14.4 nM; in test [4], 0.9 nM; in test [5], 7.4 nM; in test [7], 14.4 nM; in [13], 0.9 nM. The Kd in test [6] came to 0.3 nM; in test [9] it was 0.3 nM; in test [10], 1.1 nM; in test [15], 1.1 nM. For the same molecule, the koff was 7.9e-05 s⁻¹ in [6] and 0.00031 s⁻¹ in test [15]. The kon is 230000 M⁻¹ s⁻¹ in [6] and 270000 M⁻¹ s⁻¹ in test [15]. The “IC50, DLL4-mediated reporter assay” value in test [11] is 60 nM.

B5: DLLBII015 (VHH, not shown: small tags and cut ends)
VHH: EVQLVESGGGLVQPGGSLRLSCAASGFTIGSYDMSWVRRSPGKGPEWVSAINSGGGSTYYADYVKGRFTISRDNAKNTLYLQMNSLKPEDTAVYYCAADRYIWARQGEYWGAYAYDYWGQGTQVTVSS
In general, EC50 (read off the curve) refers to the concentration at which the effect is half-maximal. For the molecule B5, the concentration giving a half-maximal response (EC50 (read off the curve)) in test [18] was approximately 0.6 nM. Also, the half-maximal effective concentration (EC50) in [1] worked out at 5.1 nM; in test [16] it was 7 nM; in [8], 14.8 nM; in [12], 14.8 nM; in test [17] it was 7 nM; in [14], 5.1 nM. The IC50 in test [2] came out at 5.7 nM; in [3] it was 21.2 nM; in test [4] it was 0.9 nM; in test [5] it was 5.7 nM; in test [7], 21.2 nM; in test [13], 0.9 nM. Moreover, the Kd was 1 nM in test [6], 1 nM in test [9], 4.3 nM in [10] and 4.3 nM in test [15]. In addition, the koff came out at 0.00047 s⁻¹ in test [6] and 0.0015 s⁻¹ in [15]. Moreover, the kon in test [6] was found to be 450000 M⁻¹ s⁻¹; in test [15], 350000 M⁻¹ s⁻¹. Also, the “IC50, DLL4-mediated reporter assay” value in [11] was 18 nM.

(Values after patent US20140120095A1 (Boehringer Ingelheim, published 2014).)
